These results are taken from the supplement of paper PMC7125110.

Sequences and labels used below:
B1: glmS ribozyme (parent)
chain: AUAAAAGCGCCAGAACUACAGAAAUGUAGUUGACGAGGAGGAGGUUUAUCGAAUUUUCGGCGGAUGCCUCCAAA

± gives the standard error. For some of these results: Fewer inactive variants are shown than the library holds. A value given as a limit tells only on which side of the number the result lay.

What all share (conditions): with glucosamine-6-phosphate
Data set [1] covers variants of B1. In words: kcat; higher = faster cleavage; RNA array. Summed up:
(§1)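 Tiles bearing barcoded ribozyme variants, transcribed in situ by E. coli RNA polymerase on sequenced MiSeq chips, were imaged over ~14 h at 37 °C using a hybridised Cy3 probe. Glucosamine-6-phosphate was supplied at 40 μM to 10 mM in HEPES/KCl/Mg(OAc)2 buffer. kobs came from one- or two-exponential decay fits to normalised per-tile medians, and weighted Michaelis–Menten fits then provided kcat and KM.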

Variants of B1 are the subject of data set [2]. In words: KM; higher = weaker cofactor use; RNA array. The gist of the method: as §1
Variants of B1 are the subject of data set [3]. In words: self-cleavage kobs at 2500 uM GlcN6P; higher = faster cleavage; RNA array. Summed up:
as §1

Data set [4] covers variants of B1. In words: self-cleavage kobs at 10000 uM GlcN6P; higher = faster cleavage; RNA array. The gist of the method:
as §1

The variants in data set [5] derive from B1. The data set can be described thus: self-cleavage kobs at 40 uM GlcN6P; higher = faster cleavage; RNA array. The gist of the method:
as §1

The variants in data set [6] derive from B1. The data set can be described thus: self-cleavage kobs at 160 uM GlcN6P; higher = faster cleavage; RNA array. Summed up:
as §1

Variants of B1 are the subject of data set [7]. The data set can be described thus: self-cleavage kobs at 640 uM GlcN6P; higher = faster cleavage; RNA array. Summed up:
as §1

Usually kcat stands for the number of substrate molecules converted per active site and unit of time at saturation. In general, KM refers to the concentration of substrate that gives half-maximal velocity. For the variant U31A G44U, the turnover number (kcat) with glucosamine-6-phosphate [1] came to 0.00017 ± 9.6e-06 s⁻¹. Moreover, the KM with glucosamine-6-phosphate [2] amounted to 3960 ± 530 µM. For the same variant, the “self-cleavage kobs at 2500 uM GlcN6P” value with glucosamine-6-phosphate [3] was determined as 6.38e-05 ± 1.6e-05 s⁻¹. Besides, the “self-cleavage kobs at 10000 uM GlcN6P” value with glucosamine-6-phosphate [4] was 0.000122 ± 1.8e-05 s⁻¹.

For G9A, the catalytic constant (kcat) in the data set with glucosamine-6-phosphate [1] was determined as 3.95e-05 ± 2.5e-06 s⁻¹. Besides, the Michaelis constant (KM) in the data set with glucosamine-6-phosphate [2] was determined as 5140 ± 880 µM. Moreover, the “self-cleavage kobs at 40 uM GlcN6P” value in the data set with glucosamine-6-phosphate [5] was under 1e-05 s⁻¹. In the data set with glucosamine-6-phosphate [6], the “self-cleavage kobs at 160 uM GlcN6P” value was under 1e-05 s⁻¹. Moreover, the “self-cleavage kobs at 2500 uM GlcN6P” value with glucosamine-6-phosphate [3] came out at 1.33e-05 ± 3e-06 s⁻¹. Also, the “self-cleavage kobs at 10000 uM GlcN6P” value with glucosamine-6-phosphate [4] was determined as 2.61e-05 ± 1.5e-06 s⁻¹.

C11U C16A: in the data set with glucosamine-6-phosphate [1], the kcat was 0.000174 ± 7e-06 s⁻¹. In the data set with glucosamine-6-phosphate [2], the Michaelis-Menten constant (KM) is 1760 ± 190 µM. Further, in the data set with glucosamine-6-phosphate [7], the “self-cleavage kobs at 640 uM GlcN6P” value stood at 4.38e-05 ± 1.9e-05 s⁻¹. The “self-cleavage kobs at 2500 uM GlcN6P” value with glucosamine-6-phosphate [3] stood at 0.000106 ± 2.2e-05 s⁻¹. In addition, in the data set with glucosamine-6-phosphate [4], the “self-cleavage kobs at 10000 uM GlcN6P” value amounted to 0.000145 ± 2.9e-05 s⁻¹.

For A52G C71G, the kcat with glucosamine-6-phosphate [1] came to 0.00014 ± 1.4e-05 s⁻¹. Further, the KM in the data set with glucosamine-6-phosphate [2] worked out at 431 ± 170 µM. Besides, the “self-cleavage kobs at 160 uM GlcN6P” value in the data set with glucosamine-6-phosphate [6] is 4.09e-05 ± 1.4e-05 s⁻¹. The “self-cleavage kobs at 640 uM GlcN6P” value in the data set with glucosamine-6-phosphate [7] stood at 7.87e-05 ± 1.1e-05 s⁻¹. The “self-cleavage kobs at 2500 uM GlcN6P” value with glucosamine-6-phosphate [3] stood at 0.000157 ± 2.2e-05 s⁻¹. For the same variant, the “self-cleavage kobs at 10000 uM GlcN6P” value with glucosamine-6-phosphate [4] was 0.000127 ± 1.2e-05 s⁻¹.

For A6U U49A C71G, in the data set with glucosamine-6-phosphate [1], the kcat came out at 3.45e-05 ± 8.5e-06 s⁻¹.

For the variant U49G U69G, the kcat with glucosamine-6-phosphate [1] was 6.03e-05 ± 2.8e-05 s⁻¹. In addition, the “self-cleavage kobs at 640 uM GlcN6P” value with glucosamine-6-phosphate [7] came to 9.69e-05 ± 3.4e-05 s⁻¹. In the data set with glucosamine-6-phosphate [3], the “self-cleavage kobs at 2500 uM GlcN6P” value amounted to 9.67e-05 ± 2.8e-05 s⁻¹.

Consider U65A C70G, for which the kcat with glucosamine-6-phosphate [1] came to 7.88e-05 ± 4.1e-06 s⁻¹. Also, in the data set with glucosamine-6-phosphate [2], the Michaelis constant (KM) came to 66.3 ± 25 µM. Besides, in the data set with glucosamine-6-phosphate [6], the “self-cleavage kobs at 160 uM GlcN6P” value stood at 5.95e-05 ± 1.2e-05 s⁻¹. Besides, in the data set with glucosamine-6-phosphate [7], the “self-cleavage kobs at 640 uM GlcN6P” value came out at 7.89e-05 ± 1e-05 s⁻¹. Further, the “self-cleavage kobs at 2500 uM GlcN6P” value in the data set with glucosamine-6-phosphate [3] came out at 7.95e-05 ± 1e-05 s⁻¹. Moreover, in the data set with glucosamine-6-phosphate [4], the “self-cleavage kobs at 10000 uM GlcN6P” value stood at 7.32e-05 ± 7.6e-06 s⁻¹.

As to U57G G66A, the kcat in the data set with glucosamine-6-phosphate [1] came to 2.15e-05 ± 3.2e-06 s⁻¹. The “self-cleavage kobs at 40 uM GlcN6P” value with glucosamine-6-phosphate [5] was under 1e-05 s⁻¹.

As for A39G A53G, the catalytic constant (kcat) with glucosamine-6-phosphate [1] was found to be 0.0916 ± 0.024 s⁻¹. For the same variant, in the data set with glucosamine-6-phosphate [2], the Michaelis constant (KM) is 2770 ± 830 µM. In addition, the “self-cleavage kobs at 40 uM GlcN6P” value with glucosamine-6-phosphate [5] was found to be 0.0015 ± 0.00022 s⁻¹. Moreover, the “self-cleavage kobs at 160 uM GlcN6P” value in the data set with glucosamine-6-phosphate [6] was found to be 0.00433 ± 0.00068 s⁻¹. Also, the “self-cleavage kobs at 640 uM GlcN6P” value with glucosamine-6-phosphate [7] amounted to 0.0194 ± 0.0037 s⁻¹. Besides, the “self-cleavage kobs at 2500 uM GlcN6P” value with glucosamine-6-phosphate [3] turned out to be 0.0404 ± 0.015 s⁻¹. Further, in the data set with glucosamine-6-phosphate [4], the “self-cleavage kobs at 10000 uM GlcN6P” value is 0.0725 ± 0.019 s⁻¹.

With C58A U65G, the kcat with glucosamine-6-phosphate [1] turned out to be 5.13e-05 ± 1.3e-05 s⁻¹. Moreover, the “self-cleavage kobs at 2500 uM GlcN6P” value in the data set with glucosamine-6-phosphate [3] was 4.93e-05 ± 1.3e-05 s⁻¹. Also, in the data set with glucosamine-6-phosphate [4], the “self-cleavage kobs at 10000 uM GlcN6P” value stood at 4.32e-05 ± 1.3e-05 s⁻¹.

With A12G U56G, in the data set with glucosamine-6-phosphate [1], the catalytic constant (kcat) came out at 0.000904 ± 9.3e-05 s⁻¹. The Michaelis constant (KM) with glucosamine-6-phosphate [2] was 6610 ± 950 µM. Besides, the “self-cleavage kobs at 640 uM GlcN6P” value with glucosamine-6-phosphate [7] came out at 8.35e-05 ± 8.6e-06 s⁻¹. Further, in the data set with glucosamine-6-phosphate [3], the “self-cleavage kobs at 2500 uM GlcN6P” value is 0.00024 ± 2.2e-05 s⁻¹. The “self-cleavage kobs at 10000 uM GlcN6P” value with glucosamine-6-phosphate [4] came out at 0.000553 ± 5.7e-05 s⁻¹.

Turning to C50U, the catalytic constant (kcat) in the data set with glucosamine-6-phosphate [1] came to 0.000131 ± 9.2e-06 s⁻¹. In addition, the Michaelis constant (KM) with glucosamine-6-phosphate [2] was found to be 3300 ± 600 µM. The “self-cleavage kobs at 640 uM GlcN6P” value with glucosamine-6-phosphate [7] amounted to 2.57e-05 ± 1.5e-06 s⁻¹. For the same variant, in the data set with glucosamine-6-phosphate [3], the “self-cleavage kobs at 2500 uM GlcN6P” value turned out to be 5.29e-05 ± 1.6e-06 s⁻¹. Further, the “self-cleavage kobs at 10000 uM GlcN6P” value with glucosamine-6-phosphate [4] was determined as 9.95e-05 ± 1.6e-06 s⁻¹.

Take U55G U69C: the kcat in the data set with glucosamine-6-phosphate [1] amounted to 0.000334 ± 4.6e-05 s⁻¹. For the same variant, in the data set with glucosamine-6-phosphate [5], the “self-cleavage kobs at 40 uM GlcN6P” value is 0.000197 ± 4.3e-05 s⁻¹. Also, the “self-cleavage kobs at 160 uM GlcN6P” value with glucosamine-6-phosphate [6] was determined as 0.000229 ± 6.1e-05 s⁻¹. In addition, the “self-cleavage kobs at 640 uM GlcN6P” value in the data set with glucosamine-6-phosphate [7] was determined as 0.000303 ± 6.9e-05 s⁻¹. Moreover, the “self-cleavage kobs at 2500 uM GlcN6P” value with glucosamine-6-phosphate [3] worked out at 0.000289 ± 6.4e-05 s⁻¹. Also, the “self-cleavage kobs at 10000 uM GlcN6P” value in the data set with glucosamine-6-phosphate [4] stood at 0.000457 ± 8e-05 s⁻¹.

Consider U31A G37A, for which the kcat with glucosamine-6-phosphate [1] is 0.0007 ± 0.00026 s⁻¹. In addition, the “self-cleavage kobs at 160 uM GlcN6P” value with glucosamine-6-phosphate [6] turned out to be 6.91e-05 ± 1.3e-05 s⁻¹. For the same variant, in the data set with glucosamine-6-phosphate [7], the “self-cleavage kobs at 640 uM GlcN6P” value is 0.000245 ± 3.6e-05 s⁻¹. For the same variant, the “self-cleavage kobs at 2500 uM GlcN6P” value with glucosamine-6-phosphate [3] is 0.000309 ± 7.3e-05 s⁻¹. Also, in the data set with glucosamine-6-phosphate [4], the “self-cleavage kobs at 10000 uM GlcN6P” value was 0.000939 ± 0.00018 s⁻¹.

A42G U69C: in the data set with glucosamine-6-phosphate [1], the kcat is 0.0183 ± 0.0052 s⁻¹. In addition, the KM in the data set with glucosamine-6-phosphate [2] was 599 ± 250 µM. Besides, the “self-cleavage kobs at 40 uM GlcN6P” value with glucosamine-6-phosphate [5] is 0.00116 ± 0.00032 s⁻¹. Moreover, the “self-cleavage kobs at 160 uM GlcN6P” value with glucosamine-6-phosphate [6] was determined as 0.00336 ± 0.0014 s⁻¹. The “self-cleavage kobs at 640 uM GlcN6P” value in the data set with glucosamine-6-phosphate [7] stood at 0.0132 ± 0.0044 s⁻¹. Besides, the “self-cleavage kobs at 2500 uM GlcN6P” value with glucosamine-6-phosphate [3] amounted to 0.0132 ± 0.0041 s⁻¹.

Consider U45A U69G, for which, in the data set with glucosamine-6-phosphate [1], the kcat was determined as 6.38e-05 ± 2e-05 s⁻¹. Also, the “self-cleavage kobs at 640 uM GlcN6P” value with glucosamine-6-phosphate [7] was 5.46e-05 ± 1.9e-05 s⁻¹. Besides, the “self-cleavage kobs at 2500 uM GlcN6P” value with glucosamine-6-phosphate [3] was 0.000109 ± 3.2e-05 s⁻¹.
